Reference: the supplement of paper PMC9112550, “Optimization of the antimicrobial peptide Bac7 by deep mutational scanning” (BMC Biology, 2022)

What follows are sequences tested on Escherichia coli TOP10 (assay: shrunken log2 fold change of peptide-encoding DNA abundance (4.5 h post-induction vs induction); higher = less antimicrobial activity (less host growth inhibition)). Conditions: time post-induction: 4.5 h; library: site-saturation at positions 5, 18, 19, 20.
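Also: peptides expressed intracellularly from a pBAD plasmid library in pooled LB shake-flask culture, induced with 0.3% L-arabinose, DNA abundance read by NGS, three biological replicates, DESeq2 with apeglm shrinkage.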

Sequence	shrunken log2 fold change
RRIRIRPPRLPRPRPRPTYMPRP	-0.707
RRIRRRPPRLPRPRPRPRYSPRP	-0.49
RRIRGRPPRLPRPRPRPCGAPRP	1.16
RRIRRRPPRLPRPRPRPIVWPRP	0.0811
RRIRCRPPRLPRPRPRPDIAPRP	0.38
RRIRTRPPRLPRPRPRPIYWPRP	-0.157
RRIRMRPPRLPRPRPRPAGAPRP	1.28
RRIRLRPPRLPRPRPRPYYGPRP	-0.838
RRIRPRPPRLPRPRPRPCLVPRP	-0.179
RRIRWRPPRLPRPRPRPGWTPRP	0.253
RRIRHRPPRLPRPRPRPACQPRP	0.0463
RRIRNRPPRLPRPRPRPKFSPRP	-0.0617
RRIRIRPPRLPRPRPRPPERPRP	0.324
RRIRLRPPRLPRPRPRPGSRPRP	-0.183
RRIRLRPPRLPRPRPRPHALPRP	-0.396
RRIRWRPPRLPRPRPRPHRHPRP	-0.131
RRIRPRPPRLPRPRPRPRERPRP	0.121
RRIRNRPPRLPRPRPRPTCFPRP	0.0784
RRIRERPPRLPRPRPRPFNTPRP	-0.124
RRIRDRPPRLPRPRPRPAHMPRP	-0.125
RRIRFRPPRLPRPRPRPSIRPRP	-0.288
RRIRPRPPRLPRPRPRPQSKPRP	-0.237
RRIRIRPPRLPRPRPRPDIYPRP	-0.357
RRIRTRPPRLPRPRPRPVWYPRP	-0.456
RRIRRRPPRLPRPRPRPEEAPRP	1.51

Sequence	shrunken log2 fold change
RRIRPRPPRLPRPRPRPMFRPRP	-0.119
RRIRYRPPRLPRPRPRPLMRPRP	-0.0447
RRIRWRPPRLPRPRPRPWDPPRP	-0.101
RRIRLRPPRLPRPRPRPDVYPRP	-0.0227
RRIRCRPPRLPRPRPRPSRWPRP	0.599
RRIRRRPPRLPRPRPRPYHLPRP	-0.307
RRIRKRPPRLPRPRPRPHSHPRP	0.179
RRIRERPPRLPRPRPRPNYAPRP	-0.0181
RRIRHRPPRLPRPRPRPPGDPRP	0.477
RRIRLRPPRLPRPRPRPFVDPRP	0.00121
RRIRQRPPRLPRPRPRPGGGPRP	0.748
RRIRFRPPRLPRPRPRPWFLPRP	-1.15
RRIRKRPPRLPRPRPRPLKQPRP	0.146
RRIRQRPPRLPRPRPRPARHPRP	0.0911
RRIRPRPPRLPRPRPRPDSVPRP	0.195
RRIRQRPPRLPRPRPRPLDKPRP	2.19
RRIRDRPPRLPRPRPRPVWDPRP	0.107
RRIRVRPPRLPRPRPRPMPGPRP	0.18
RRIRSRPPRLPRPRPRPCTEPRP	-0.241
RRIRKRPPRLPRPRPRPLVYPRP	-0.23
RRIRHRPPRLPRPRPRPNCNPRP	-0.589
RRIRQRPPRLPRPRPRPIKDPRP	-0.034
RRIRQRPPRLPRPRPRPVVSPRP	-0.179
RRIRPRPPRLPRPRPRPPHFPRP	0.646
RRIRRRPPRLPRPRPRPWNHPRP	-0.0953

Sequence	shrunken log2 fold change
RRIRVRPPRLPRPRPRPAPAPRP	0.626
RRIRGRPPRLPRPRPRPHTEPRP	-0.0408
RRIRARPPRLPRPRPRPAHRPRP	0.326
RRIRYRPPRLPRPRPRPNDFPRP	-0.0506
RRIRRRPPRLPRPRPRPVVVPRP	0.186
RRIRRRPPRLPRPRPRPDIMPRP	-0.146
RRIRMRPPRLPRPRPRPASLPRP	-0.0145
RRIRMRPPRLPRPRPRPFPKPRP	0.385
RRIRARPPRLPRPRPRPFHVPRP	0.00498
RRIRNRPPRLPRPRPRPSFDPRP	-0.427
RRIRERPPRLPRPRPRPGPVPRP	0.137
RRIRLRPPRLPRPRPRPDGWPRP	0.257
RRIRMRPPRLPRPRPRPGTMPRP	-0.115
RRIRNRPPRLPRPRPRPKMYPRP	-0.0156
RRIRLRPPRLPRPRPRPQKRPRP	0.0648
RRIRKRPPRLPRPRPRPQYAPRP	0.0233
RRIRTRPPRLPRPRPRPWPGPRP	0.0416
RRIRDRPPRLPRPRPRPNCRPRP	0.0111
RRIRRRPPRLPRPRPRPHVEPRP	-0.162
RRIRDRPPRLPRPRPRPKHMPRP	-0.192
RRIRKRPPRLPRPRPRPCHVPRP	-0.203
RRIRPRPPRLPRPRPRPAQDPRP	0.0233
RRIRLRPPRLPRPRPRPNLTPRP	-0.299
RRIRGRPPRLPRPRPRPSMGPRP	0.34
RRIRDRPPRLPRPRPRPYCGPRP	0.0637

Sequence	shrunken log2 fold change
RRIRTRPPRLPRPRPRPCCCPRP	0.276
RRIRERPPRLPRPRPRPPQGPRP	0.158
RRIRKRPPRLPRPRPRPQFAPRP	-0.0223
RRIRTRPPRLPRPRPRPVGAPRP	0.327
RRIRGRPPRLPRPRPRPPNRPRP	0.427
RRIRDRPPRLPRPRPRPIRKPRP	0.0201
RRIRVRPPRLPRPRPRPFQQPRP	-0.014
RRIRRRPPRLPRPRPRPKYNPRP	-0.384
RRIRNRPPRLPRPRPRPLRIPRP	0.0934
RRIRWRPPRLPRPRPRPCPDPRP	0.111
RRIRMRPPRLPRPRPRPKNLPRP	-0.102
RRIRQRPPRLPRPRPRPHNKPRP	-0.599
RRIRIRPPRLPRPRPRPDWSPRP	-0.161
RRIRYRPPRLPRPRPRPNCPPRP	-0.272
RRIRWRPPRLPRPRPRPMRVPRP	1.03
RRIRCRPPRLPRPRPRPENVPRP	-0.0137
RRIRTRPPRLPRPRPRPMHWPRP	0.209
RRIRNRPPRLPRPRPRPLERPRP	0.0661
RRIRDRPPRLPRPRPRPVVSPRP	0.0706
RRIRQRPPRLPRPRPRPVRRPRP	-0.00994
RRIRPRPPRLPRPRPRPAPIPRP	0.0955
RRIRWRPPRLPRPRPRPIPPPRP	0.101
RRIRPRPPRLPRPRPRPSTHPRP	-0.203
RRIRARPPRLPRPRPRPAFIPRP	0.142
RRIRARPPRLPRPRPRPECPPRP	0.683

Sequence	shrunken log2 fold change
RRIRCRPPRLPRPRPRPWHKPRP	-0.256
RRIRCRPPRLPRPRPRPMPCPRP	-0.688
RRIRCRPPRLPRPRPRPLLPPRP	-0.143
RRIRARPPRLPRPRPRPMSHPRP	0.148
RRIRLRPPRLPRPRPRPTSKPRP	-0.253
RRIRQRPPRLPRPRPRPWWDPRP	0.00367
RRIRHRPPRLPRPRPRPSSCPRP	-0.0272
RRIRPRPPRLPRPRPRPLIKPRP	-0.268
RRIRGRPPRLPRPRPRPPPNPRP	1.27
RRIRERPPRLPRPRPRPIVDPRP	-0.204
RRIRFRPPRLPRPRPRPSPNPRP	-0.399
RRIRNRPPRLPRPRPRPSWCPRP	-0.0906
RRIRWRPPRLPRPRPRPCHEPRP	-0.00847
RRIRARPPRLPRPRPRPFCYPRP	0.0576
RRIRERPPRLPRPRPRPWKSPRP	-0.0163
RRIRPRPPRLPRPRPRPPKEPRP	0.506
RRIRGRPPRLPRPRPRPWPAPRP	0.763
RRIRPRPPRLPRPRPRPKMNPRP	-0.273
RRIRARPPRLPRPRPRPRMYPRP	0.0922
RRIRRRPPRLPRPRPRPLEHPRP	0.21
RRIRKRPPRLPRPRPRPIHIPRP	-0.39
RRIRMRPPRLPRPRPRPHNWPRP	0.249
RRIRFRPPRLPRPRPRPEQTPRP	-0.0498
RRIRTRPPRLPRPRPRPPLKPRP	-0.0323
RRIRHRPPRLPRPRPRPGTHPRP	0.0646

Sequence	shrunken log2 fold change
RRIRTRPPRLPRPRPRPNIWPRP	0.682
RRIRKRPPRLPRPRPRPVIRPRP	0.0302
RRIRCRPPRLPRPRPRPIHKPRP	-0.638
RRIRRRPPRLPRPRPRPNVSPRP	0.137
RRIRPRPPRLPRPRPRPVHAPRP	0.441
RRIRVRPPRLPRPRPRPCEIPRP	-0.0392
RRIRVRPPRLPRPRPRPRAAPRP	0.425
RRIRYRPPRLPRPRPRPAIAPRP	0.0565
RRIRHRPPRLPRPRPRPSSPPRP	-0.316
RRIRSRPPRLPRPRPRPLRMPRP	0.0358
RRIRVRPPRLPRPRPRPVKQPRP	-0.0475
RRIRWRPPRLPRPRPRPVSIPRP	0.235
RRIRERPPRLPRPRPRPDGVPRP	-0.162
RRIRSRPPRLPRPRPRPREWPRP	0.759
RRIRYRPPRLPRPRPRPARHPRP	0.0712
RRIRTRPPRLPRPRPRPFVPPRP	2.01
RRIRIRPPRLPRPRPRPANSPRP	-0.204
RRIRDRPPRLPRPRPRPYNKPRP	-0.398
RRIRERPPRLPRPRPRPKNKPRP	-0.559
RRIRFRPPRLPRPRPRPNTKPRP	-0.323
RRIRWRPPRLPRPRPRPWYVPRP	-0.396
RRIRRRPPRLPRPRPRPADQPRP	0.0865
RRIRLRPPRLPRPRPRPGGCPRP	0.177
RRIRKRPPRLPRPRPRPDIFPRP	-0.178
RRIRKRPPRLPRPRPRPLIKPRP	-0.338
